Assay results taken from patent US6531296B1, “Nuclear tyrosine kinase Rak” (The University of North Carolina at Chapel Hill, priority 1995, dated 2003).

Key:
Cdk5 = target: T1, Cdk5 (Homo sapiens, UniProt Q00535); assay: Affinity precipitation from BT474 lysate with Rak N-terminal GST fusion protein; type: binding; conditions: BT474 cell lysate
T1 construct: endogenous in cells; host or cells: BT474
Experimental: (§1) For affinity precipitations, 250 ug of cell lysate was pre-cleared once with 25 ul of glutathione-sepharose beads (Pharmacia) then once with 25 ul of the same beads containing 2 ug/ml Glutathione S-transferase. The lysate was then incubated with 25 ul of GST-RakNT bound to glutathione-sepharose, in a total volume of 500 ul of NP-40 lysis buffer, for 3 hours at 4° C. The beads were then washed three times in NP-40 Lysis Buffer and the bound proteins were eluted with SDS-PAGE sample loading buffer. pRb binding was assessed by Western blot analysis with the G3-245 antibody at 1 ug/ml.
(§2) Because the N-terminus is frequently responsible for protein-protein interactions in Src-related kinases, the proteins that bind to this region were characterized. The N-terminal 110 amino acids of Rak were expressed as a bacterial fusion protein with Glutathione S-transferase, and were incubated with cell lysates from BT474 breast cancer cells. In this assay, binding of RAK to the cyclin-dependent kinases Cdc2 and Cdk4 was detected, but binding to Cdk5, Cdk6, or Cdk7 was not detected (data not shown).

Cdk6 = target: T2, Cdk6 (Homo sapiens, UniProt Q00534); assay: as above; type: binding; conditions: BT474 cell lysate
T2 construct: endogenous in cells; host or cells: BT474
Experimental: as §1, §2

Cdk7 = target: T3, Cdk7 (Homo sapiens, UniProt P50613); assay: as above; type: binding; conditions: BT474 cell lysate
T3 construct: endogenous in cells; host or cells: BT474
Experimental: as §1, §2

Cdk4 = target: T4, Cdk4 (Homo sapiens, UniProt P11802); assay: as above; type: binding; conditions: BT474 cell lysate
T4 construct: endogenous in cells; host or cells: BT474
Experimental: as §1, §2

CDC2 [1] = target: T5, CDC2 (Homo sapiens, UniProt P06493); assay: as above; type: binding; design: endogenous in cells; host or cells: BT474; conditions: BT474 cell lysate
Experimental: as §1, §2

Shc = assay: Affinity precipitation from SK-BR-3 lysate with GST-RakNT; type: binding, human; conditions: SK-BR-3 cell lysate
Experimental: as §1
(§3) Results and Discussion: To test whether Rak and pRb physically interact, the first 110 amino acids of Rak (first 110 amino acids of SEQ ID NO:2), where the predicted interacting peptides reside were prepared as a bacterial fusion protein with the Glutathione-S transferase gene (Rak-NT:GST), and incubated with cell lysates from SK-BR-3 breast cancer cells, and bound proteins were analyzed by Western blotting. Glutathione-S transferase alone was used as the control. […] In contrast, binding of Rak to proteins that interact with the SH3 domains of other members of the Src family, such as GAP-associated p62 or Shc, was not found (data not shown).

GAP-associated p62 = target: T6, GAP-associated p62 (Homo sapiens, UniProt Q07666); assay: as above; type: binding; conditions: SK-BR-3 cell lysate
T6 construct: incubated with cell lysates from SK-BR-3 breast cancer cells; endogenous in cells; host or cells: SK-BR-3
Experimental: as §1, §3

CDC2 [2] = target: T5, CDC2; assay: In vitro kinase assay of immunoprecipitated CDC2 with Histone H1 as exogenous substrate; type: biochemical; design: incubated with immunoprecipitated CDC2; endogenous in cells
Experimental: The 110 N-terminal amino acids of Rak were produced as a GST fusion protein (RAKNT:GST) and incubated with immunoprecipitated CDC2, and subjected to an in vitro kinase assay with Histone H1 added as an exogenous substrate, and analyzed by SDS-PAGE. […] This fusion protein was incubated with immunoprecipitated CDC2, and subjected to an in vitro kinase assay with Histone H1 added as an exogenous substrate, and analyzed by SDS-PAGE.
The CDC2 binding domain of RAK appears to be between amino acids 86-110. Since the binding of RAK to CDC2 is exceptionally strong, the biological function of this interaction was explored.

pRb = target: T7, pRb (Homo sapiens, UniProt P06400); assay: Affinity precipitation from SK-BR-3 lysate with GST-RakNT, Western blot for pRb; type: binding; conditions: SK-BR-3 cell lysate, GST alone as control
T7 construct: incubated with cell lysates from SK-BR-3 breast cancer cells; endogenous in cells; host or cells: SK-BR-3
T7 sequence (P06400 1-928): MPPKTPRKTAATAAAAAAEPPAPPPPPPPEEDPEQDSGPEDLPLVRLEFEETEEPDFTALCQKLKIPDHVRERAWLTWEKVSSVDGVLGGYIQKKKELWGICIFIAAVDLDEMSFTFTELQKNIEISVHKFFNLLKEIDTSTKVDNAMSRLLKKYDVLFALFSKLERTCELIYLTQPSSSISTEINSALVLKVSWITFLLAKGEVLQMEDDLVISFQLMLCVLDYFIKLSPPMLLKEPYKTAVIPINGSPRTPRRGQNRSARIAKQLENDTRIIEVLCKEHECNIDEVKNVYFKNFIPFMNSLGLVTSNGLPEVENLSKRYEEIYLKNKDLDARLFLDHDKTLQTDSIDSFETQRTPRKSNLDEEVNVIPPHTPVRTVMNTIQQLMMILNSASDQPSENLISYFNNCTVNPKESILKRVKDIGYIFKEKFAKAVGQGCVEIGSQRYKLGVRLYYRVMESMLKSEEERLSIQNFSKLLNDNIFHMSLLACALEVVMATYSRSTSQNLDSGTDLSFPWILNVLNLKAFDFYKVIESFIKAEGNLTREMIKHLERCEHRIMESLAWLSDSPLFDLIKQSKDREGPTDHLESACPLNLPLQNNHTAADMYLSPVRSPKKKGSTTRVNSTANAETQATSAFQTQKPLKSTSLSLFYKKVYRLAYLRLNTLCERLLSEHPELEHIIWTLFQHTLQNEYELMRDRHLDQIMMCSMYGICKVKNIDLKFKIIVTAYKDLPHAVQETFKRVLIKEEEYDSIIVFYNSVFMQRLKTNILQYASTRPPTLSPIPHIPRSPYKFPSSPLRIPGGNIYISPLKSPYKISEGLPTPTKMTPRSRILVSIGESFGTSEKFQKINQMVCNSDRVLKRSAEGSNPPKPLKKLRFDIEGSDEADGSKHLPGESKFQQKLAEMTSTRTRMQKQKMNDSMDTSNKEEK
Experimental: Affinity Precipitations. DNA fragments encoding the amino terminal region of Rak were prepared using the polymerase chain reaction with Pyrococcus furiosus DNA polymerase (Stratagene), and cloned into the pGEX-4T plasmid (Pharmacia). Rb fusion proteins encoding amino acids 379-928 (RbABC, containing the A/B pocket region and the COOH-terminal domain) and 780-928 (RbC for COOH terminal domain only), were prepared similarly. The GST fusion proteins were induced and purified according to the manufacturer's instructions, and were analyzed by SDS-PAGE to ensure that an equal amount of protein was used for the affinity precipitation procedure.
For affinity precipitations, 250 ug of cell lysate was pre-cleared once with 25 ul of glutathione-sepharose beads (Pharmacia) then once with 25 ul of the same beads containing 2 ug/ml Glutathione S-transferase. […]
Results and Discussion: To test whether Rak and pRb physically interact, the first 110 amino acids of Rak (first 110 amino acids of SEQ ID NO:2), where the predicted interacting peptides reside were prepared as a bacterial fusion protein with the Glutathione-S transferase gene (Rak-NT:GST), and incubated with cell lysates from SK-BR-3 breast cancer cells, and bound proteins were analyzed by Western blotting. […]

T5 sequence (P06493 whole entry): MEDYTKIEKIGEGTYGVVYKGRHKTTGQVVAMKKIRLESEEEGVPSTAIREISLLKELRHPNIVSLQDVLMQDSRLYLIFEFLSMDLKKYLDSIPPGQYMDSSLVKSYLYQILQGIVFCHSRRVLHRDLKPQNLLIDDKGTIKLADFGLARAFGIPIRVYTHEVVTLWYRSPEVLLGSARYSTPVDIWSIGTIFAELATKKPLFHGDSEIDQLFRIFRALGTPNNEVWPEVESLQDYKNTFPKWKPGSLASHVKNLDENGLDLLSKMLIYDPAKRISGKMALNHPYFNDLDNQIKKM
Shc, sequence (P29353 156-583 limits assumed): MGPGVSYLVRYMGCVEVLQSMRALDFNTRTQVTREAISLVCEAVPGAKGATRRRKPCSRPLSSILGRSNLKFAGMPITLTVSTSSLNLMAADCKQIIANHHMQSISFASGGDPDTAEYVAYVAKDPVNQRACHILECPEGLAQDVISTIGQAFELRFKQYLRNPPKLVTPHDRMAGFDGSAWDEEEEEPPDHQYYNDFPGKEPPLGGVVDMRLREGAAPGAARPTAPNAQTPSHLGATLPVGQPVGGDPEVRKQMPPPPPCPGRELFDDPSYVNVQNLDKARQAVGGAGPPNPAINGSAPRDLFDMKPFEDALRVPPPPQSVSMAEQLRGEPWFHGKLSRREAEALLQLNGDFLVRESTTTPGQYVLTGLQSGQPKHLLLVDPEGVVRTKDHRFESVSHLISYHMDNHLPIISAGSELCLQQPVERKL
T1 sequence (Q00535 whole entry, the tested form may be a part): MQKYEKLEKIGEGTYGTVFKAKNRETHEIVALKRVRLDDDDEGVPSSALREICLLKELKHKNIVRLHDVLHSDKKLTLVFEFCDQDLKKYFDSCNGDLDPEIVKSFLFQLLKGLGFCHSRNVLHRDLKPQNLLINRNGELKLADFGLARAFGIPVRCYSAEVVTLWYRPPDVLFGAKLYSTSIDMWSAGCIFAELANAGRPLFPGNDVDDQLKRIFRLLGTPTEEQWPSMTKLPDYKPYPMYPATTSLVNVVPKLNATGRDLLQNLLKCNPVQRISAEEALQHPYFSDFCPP
T6 sequence (Q07666 whole entry): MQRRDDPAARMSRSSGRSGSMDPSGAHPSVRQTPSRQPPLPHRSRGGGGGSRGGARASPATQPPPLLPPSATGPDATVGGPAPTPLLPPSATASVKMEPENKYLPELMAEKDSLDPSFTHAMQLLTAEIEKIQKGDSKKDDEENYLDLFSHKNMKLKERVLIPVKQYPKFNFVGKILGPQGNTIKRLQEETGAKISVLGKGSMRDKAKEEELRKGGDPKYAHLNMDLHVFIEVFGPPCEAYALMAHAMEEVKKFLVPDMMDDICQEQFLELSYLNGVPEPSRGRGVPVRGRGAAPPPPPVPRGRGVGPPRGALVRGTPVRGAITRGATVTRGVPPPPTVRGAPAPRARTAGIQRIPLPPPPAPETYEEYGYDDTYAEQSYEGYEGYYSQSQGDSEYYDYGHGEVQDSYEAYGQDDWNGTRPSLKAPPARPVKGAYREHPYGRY
T2 sequence (Q00534 whole entry): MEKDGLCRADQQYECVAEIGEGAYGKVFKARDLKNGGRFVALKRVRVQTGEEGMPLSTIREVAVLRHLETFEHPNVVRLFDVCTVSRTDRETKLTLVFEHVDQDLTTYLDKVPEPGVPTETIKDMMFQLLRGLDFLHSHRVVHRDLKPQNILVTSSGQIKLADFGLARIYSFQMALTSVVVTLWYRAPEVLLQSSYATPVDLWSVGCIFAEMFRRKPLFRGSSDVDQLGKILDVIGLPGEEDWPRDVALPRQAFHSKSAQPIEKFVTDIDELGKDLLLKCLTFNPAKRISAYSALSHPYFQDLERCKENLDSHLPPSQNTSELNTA
T4 sequence (P11802 whole entry): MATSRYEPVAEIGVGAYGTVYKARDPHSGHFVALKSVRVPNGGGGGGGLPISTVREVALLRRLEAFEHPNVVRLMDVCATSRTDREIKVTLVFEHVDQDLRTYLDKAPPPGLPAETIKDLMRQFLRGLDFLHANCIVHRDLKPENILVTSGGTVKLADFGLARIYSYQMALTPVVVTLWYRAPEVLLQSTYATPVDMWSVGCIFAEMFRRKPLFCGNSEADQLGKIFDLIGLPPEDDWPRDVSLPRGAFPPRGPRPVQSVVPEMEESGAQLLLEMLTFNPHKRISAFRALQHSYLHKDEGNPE
T3 sequence (P50613 whole entry): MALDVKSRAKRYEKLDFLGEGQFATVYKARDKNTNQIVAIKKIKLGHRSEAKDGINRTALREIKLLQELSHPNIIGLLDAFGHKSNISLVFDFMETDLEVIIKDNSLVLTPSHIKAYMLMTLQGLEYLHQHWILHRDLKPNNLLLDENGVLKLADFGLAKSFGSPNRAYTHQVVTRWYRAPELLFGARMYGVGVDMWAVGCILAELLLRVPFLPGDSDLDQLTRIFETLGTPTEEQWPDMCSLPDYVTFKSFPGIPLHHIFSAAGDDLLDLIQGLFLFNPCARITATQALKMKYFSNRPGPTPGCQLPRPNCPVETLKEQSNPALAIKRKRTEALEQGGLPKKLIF

binding to Cdk5 (Cdk5): not detected | binding to Cdk6 (Cdk6): not detected | binding to Cdk7 (Cdk7): not detected | binding to Cdk4 (Cdk4): detected | binding to Cdc2 (CDC2 [1]): detected | binding to Shc (Shc): not found | binding to GAP-associated p62 (GAP-associated p62): not found | inhibition of CDC2 histone H1 phosphorylation activity (CDC2 [2]; listed as RAK-SH3:GST): able to block CDC2 histone H1 activity | pRb binding (pRb): bound
B1: Rak-NT:GST: first 110 amino acids of Rak (SEQ ID NO:2) as bacterial fusion protein with Glutathione-S transferase (protein)
chain: MSNICQRLWEYLEPYLPCLSTEADKSTVIENPGALCSPQSQRHGHYFVALFDYQARTAEDLSFRAGDKLQVLDTLHEGWWFARHLEKRRDGSSQQLQGYIPSNYVAEDRS
modifications: left off: a dimerising Fc or GST; large carriers; small tags and cut ends
inhibition of CDC2 histone H1 phosphorylation activity (CDC2 [2]; listed as RakNT fusion protein): reduction of CDC2 histone H1 phosphorylation activity
